Experimental data: US20220025344A1 (Novartis, published 2022)

How the values were obtained:
His6-Human LPL(28-475) = biological target: T1, His6-Human LPL(28-475) (human, UniProt P06858 28-475); test: Ni-affinity co-purification of untagged GPIHBP1 with N-terminally 6-His tagged LPL (SDS-PAGE), then size exclusion chromatography against MW standards
T1 construct: also called N-terminally 6-His tagged LPL
T1 sequence: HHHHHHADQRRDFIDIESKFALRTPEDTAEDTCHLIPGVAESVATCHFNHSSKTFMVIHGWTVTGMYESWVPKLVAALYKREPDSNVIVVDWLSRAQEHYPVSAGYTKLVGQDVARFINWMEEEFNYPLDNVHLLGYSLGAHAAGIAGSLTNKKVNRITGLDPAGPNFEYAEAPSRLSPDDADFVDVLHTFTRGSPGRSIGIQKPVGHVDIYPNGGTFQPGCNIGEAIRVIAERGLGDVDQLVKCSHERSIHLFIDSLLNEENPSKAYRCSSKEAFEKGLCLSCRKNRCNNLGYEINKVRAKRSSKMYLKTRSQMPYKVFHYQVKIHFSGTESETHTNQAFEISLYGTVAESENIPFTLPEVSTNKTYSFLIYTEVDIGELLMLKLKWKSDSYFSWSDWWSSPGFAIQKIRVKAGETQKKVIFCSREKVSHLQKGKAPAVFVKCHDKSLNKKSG
From the text: Initially an attempt was made to purify LPL protein by itself. In order to aid this purification, a variety of LPL constructs were synthesized that were either untagged or had N- or C-terminal tags. These LPL constructs were expressed in mammalian cells and purified using heparin chromatography or Ni-affinity chromatography. […] Co-expression of the purified soluble form of GPIHBP1 with LPL protected LPL against spontaneous inactivation (data not shown). GPIHBP1 was then co-expressed with LPL in the presence of LMF1 in the following manner: N-terminally 6-His tagged LPL, untagged GPIHBP1, and LMF1 were co-transfected in a ratio of 3:1:1 into HEK293T cells. The expressed protein complex was captured using Ni-affinity chromatography. […] Importantly, the presence of GPIHBP1 and LMF1 generated an LPL/GPIHBP1 complex that was homogenous and eluted as a ˜75 KDa complex during size exclusion chromatography (FIG. 1, panel C). This agreed well with the predicted molecular weight of a 1:1 LPL/GPHBP1 complex.

[1] = biological target: T2, Recombinant human LPL (mature human lipoprotein lipase, amino acids 28-475) (human, UniProt P06858 28-475); test: crystal structure of the complex (data not shown)
T2 construct: also called LPL alone; hLPL
T2 sequence: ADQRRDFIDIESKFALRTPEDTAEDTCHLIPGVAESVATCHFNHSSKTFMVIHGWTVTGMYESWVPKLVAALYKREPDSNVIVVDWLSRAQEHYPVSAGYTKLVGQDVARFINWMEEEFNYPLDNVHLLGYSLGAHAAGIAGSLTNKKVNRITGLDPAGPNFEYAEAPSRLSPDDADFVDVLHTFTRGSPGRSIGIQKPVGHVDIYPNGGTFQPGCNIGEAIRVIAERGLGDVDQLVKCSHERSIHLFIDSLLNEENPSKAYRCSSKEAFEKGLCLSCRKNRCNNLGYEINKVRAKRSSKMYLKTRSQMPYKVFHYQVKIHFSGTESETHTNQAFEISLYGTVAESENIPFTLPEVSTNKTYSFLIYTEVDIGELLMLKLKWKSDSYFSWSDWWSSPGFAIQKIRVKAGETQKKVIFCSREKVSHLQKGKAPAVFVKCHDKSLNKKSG

- binding result (His6-Human LPL(28-475)): binds
- binding result [1]: binds
B1: Human soluble GPIHBP1 (aa 21-151) (receptor)
chain: QTQQEEEEEDEDHGPDDYDEEDEDEVEEEETNRLPGGRSRVLLRCYTCKSLPRDERCNLTQNCSHGQTCTTLIAHGNTESGLLTTHSTWCTDSCQPITKTVEGTQVTMTCCQSSLCNVPPWQSSRVQDPTG
notes: also called untagged GPIHBP1; solGPIHBP1
